In the data set the test system is Escherichia coli TOP10. Put plainly: shrunken log2 fold change of peptide-encoding DNA abundance (4.5 h post-induction vs induction); higher = less antimicrobial activity (less host growth inhibition). The following applies: time post-induction: 4.5 h; library: site-saturation at positions 5, 18, 19, 20.

From the supplement of paper PMC9112550, “Optimization of the antimicrobial peptide Bac7 by deep mutational scanning” (BMC Biology, 2022) come the findings set out here.
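Further: peptides expressed intracellularly from a pBAD plasmid library in pooled LB shake-flask culture, induced with 0.3% L-arabinose, DNA abundance read by NGS, three biological replicates, DESeq2 with apeglm shrinkage.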

For RRIRERPPRLPRPRPRPVSAPRP, the “shrunken log2 fold change” value was found to be 0.148.

Turning to RRIRSRPPRLPRPRPRPMKEPRP, the “shrunken log2 fold change” value is -0.338.

Take RRIRRRPPRLPRPRPRPYAQPRP: the “shrunken log2 fold change” value was -0.252.

On to RRIRWRPPRLPRPRPRPNPPPRP, for which the “shrunken log2 fold change” value is 0.206.

With RRIRERPPRLPRPRPRPMYAPRP, the “shrunken log2 fold change” value was -0.246.

In the case of RRIRCRPPRLPRPRPRPTATPRP, the “shrunken log2 fold change” value is 0.299.

With RRIRVRPPRLPRPRPRPGDIPRP, the “shrunken log2 fold change” value is -0.264.

Regarding RRIRIRPPRLPRPRPRPNNAPRP, the “shrunken log2 fold change” value was -0.444.

As to RRIRTRPPRLPRPRPRPMEKPRP, the “shrunken log2 fold change” value is -0.00136.

As for RRIRYRPPRLPRPRPRPMKTPRP, the “shrunken log2 fold change” value was -0.0156.

Turning to RRIRYRPPRLPRPRPRPPINPRP, the “shrunken log2 fold change” value was -0.378.

For the sequence RRIRNRPPRLPRPRPRPTGTPRP, the “shrunken log2 fold change” value was 0.0526.

For the sequence RRIRNRPPRLPRPRPRPRHPPRP, the “shrunken log2 fold change” value is 0.136.

For the sequence RRIRARPPRLPRPRPRPASFPRP, the “shrunken log2 fold change” value was determined as 0.387.

Consider RRIRVRPPRLPRPRPRPGEMPRP, for which the “shrunken log2 fold change” value stood at 0.329.

For RRIRDRPPRLPRPRPRPLCKPRP, the “shrunken log2 fold change” value was -0.224.

On to RRIRCRPPRLPRPRPRPWFAPRP, for which the “shrunken log2 fold change” value was -0.183.

For the sequence RRIRGRPPRLPRPRPRPNNVPRP, the “shrunken log2 fold change” value is -0.131.

As for RRIRWRPPRLPRPRPRPVYKPRP, the “shrunken log2 fold change” value is -0.516.

For the sequence RRIRVRPPRLPRPRPRPPYLPRP, the “shrunken log2 fold change” value was -0.0916.

As for RRIRKRPPRLPRPRPRPVHPPRP, the “shrunken log2 fold change” value came out at 0.189.

For RRIRPRPPRLPRPRPRPSVKPRP, the “shrunken log2 fold change” value was -0.277.

Take RRIRMRPPRLPRPRPRPHQLPRP: the “shrunken log2 fold change” value is -0.0373.

Turning to RRIRNRPPRLPRPRPRPVLCPRP, the “shrunken log2 fold change” value is 0.0343.

Consider RRIRYRPPRLPRPRPRPYTDPRP, for which the “shrunken log2 fold change” value is -0.396.

For the sequence RRIRSRPPRLPRPRPRPARIPRP, the “shrunken log2 fold change” value was found to be 0.0694.

Turning to RRIRDRPPRLPRPRPRPQVGPRP, the “shrunken log2 fold change” value came out at 0.132.

As to RRIRHRPPRLPRPRPRPNWSPRP, the “shrunken log2 fold change” value was -0.0165.

RRIRQRPPRLPRPRPRPYRLPRP: the “shrunken log2 fold change” value was -0.19.

Take RRIRFRPPRLPRPRPRPPCIPRP: the “shrunken log2 fold change” value was -0.0411.

As to RRIRCRPPRLPRPRPRPGQDPRP, the “shrunken log2 fold change” value was -0.0365.

RRIRTRPPRLPRPRPRPAVCPRP: the “shrunken log2 fold change” value was determined as 0.712.

For RRIRKRPPRLPRPRPRPTSNPRP, the “shrunken log2 fold change” value came out at 0.161.

Turning to RRIRIRPPRLPRPRPRPEGMPRP, the “shrunken log2 fold change” value was -0.0787.

Turning to RRIRGRPPRLPRPRPRPRYYPRP, the “shrunken log2 fold change” value was -0.0701.

For RRIRVRPPRLPRPRPRPFWNPRP, the “shrunken log2 fold change” value is -0.00518.

Regarding RRIRVRPPRLPRPRPRPDSAPRP, the “shrunken log2 fold change” value was 0.0792.

Consider RRIRRRPPRLPRPRPRPWMAPRP, for which the “shrunken log2 fold change” value is 0.0421.

Regarding RRIRCRPPRLPRPRPRPPDKPRP, the “shrunken log2 fold change” value came out at 0.0264.

Consider RRIRQRPPRLPRPRPRPSEPPRP, for which the “shrunken log2 fold change” value worked out at 0.0286.

As to RRIRRRPPRLPRPRPRPMNYPRP, the “shrunken log2 fold change” value was -0.0341.

For RRIRGRPPRLPRPRPRPCAGPRP, the “shrunken log2 fold change” value was 0.834.

For RRIRFRPPRLPRPRPRPTSMPRP, the “shrunken log2 fold change” value was -0.00284.

As for RRIRVRPPRLPRPRPRPCQEPRP, the “shrunken log2 fold change” value was -0.68.

For RRIRQRPPRLPRPRPRPEMPPRP, the “shrunken log2 fold change” value is 0.188.

With RRIRERPPRLPRPRPRPADAPRP, the “shrunken log2 fold change” value turned out to be 0.117.

RRIRARPPRLPRPRPRPANTPRP: the “shrunken log2 fold change” value was 0.0584.

As for RRIRDRPPRLPRPRPRPHCYPRP, the “shrunken log2 fold change” value was -0.106.

As for RRIRLRPPRLPRPRPRPGYKPRP, the “shrunken log2 fold change” value is -0.514.

As to RRIRERPPRLPRPRPRPTIMPRP, the “shrunken log2 fold change” value was -0.959.

In the case of RRIRTRPPRLPRPRPRPELMPRP, the “shrunken log2 fold change” value was 0.0498.

In the case of RRIRCRPPRLPRPRPRPDKFPRP, the “shrunken log2 fold change” value was -0.296.

Regarding RRIRTRPPRLPRPRPRPMVWPRP, the “shrunken log2 fold change” value came out at 0.57.

Consider RRIRHRPPRLPRPRPRPTNRPRP, for which the “shrunken log2 fold change” value was -0.162.

Turning to RRIRMRPPRLPRPRPRPQRCPRP, the “shrunken log2 fold change” value came out at 0.551.

In the case of RRIRTRPPRLPRPRPRPITYPRP, the “shrunken log2 fold change” value is -0.0511.

With RRIRERPPRLPRPRPRPFRCPRP, the “shrunken log2 fold change” value worked out at 0.00668.

For the sequence RRIRRRPPRLPRPRPRPVCKPRP, the “shrunken log2 fold change” value is -0.012.

As for RRIRFRPPRLPRPRPRPFCDPRP, the “shrunken log2 fold change” value is -0.352.

For the sequence RRIRFRPPRLPRPRPRPEVQPRP, the “shrunken log2 fold change” value amounted to 0.00737.

Turning to RRIRYRPPRLPRPRPRPITDPRP, the “shrunken log2 fold change” value is -0.162.

RRIRGRPPRLPRPRPRPHNAPRP: the “shrunken log2 fold change” value turned out to be 0.0947.

For RRIRQRPPRLPRPRPRPLSQPRP, the “shrunken log2 fold change” value is -0.0534.

On to RRIRGRPPRLPRPRPRPPEGPRP, for which the “shrunken log2 fold change” value was determined as 1.15.

As for RRIRSRPPRLPRPRPRPPNDPRP, the “shrunken log2 fold change” value is -0.0183.

With RRIRCRPPRLPRPRPRPFFHPRP, the “shrunken log2 fold change” value was -0.364.

For the sequence RRIRDRPPRLPRPRPRPPENPRP, the “shrunken log2 fold change” value was 0.856.

RRIRERPPRLPRPRPRPFPVPRP: the “shrunken log2 fold change” value was -0.214.

With RRIRQRPPRLPRPRPRPDILPRP, the “shrunken log2 fold change” value was -0.0607.

For the sequence RRIRMRPPRLPRPRPRPRIFPRP, the “shrunken log2 fold change” value was 0.011.

On to RRIRARPPRLPRPRPRPHESPRP, for which the “shrunken log2 fold change” value was determined as 0.779.

Regarding RRIRGRPPRLPRPRPRPGIWPRP, the “shrunken log2 fold change” value was determined as 0.758.

In the case of RRIRDRPPRLPRPRPRPWHVPRP, the “shrunken log2 fold change” value is 0.015.

As to RRIRERPPRLPRPRPRPQADPRP, the “shrunken log2 fold change” value was -0.171.

As to RRIRSRPPRLPRPRPRPWWVPRP, the “shrunken log2 fold change” value is -0.2.

For RRIRQRPPRLPRPRPRPAYCPRP, the “shrunken log2 fold change” value was -0.043.

RRIRNRPPRLPRPRPRPEFHPRP: the “shrunken log2 fold change” value is -0.0541.

For RRIRHRPPRLPRPRPRPAGGPRP, the “shrunken log2 fold change” value was -0.131.

As for RRIRHRPPRLPRPRPRPNILPRP, the “shrunken log2 fold change” value is -0.448.

Turning to RRIRMRPPRLPRPRPRPFEYPRP, the “shrunken log2 fold change” value was -0.219.

As to RRIRKRPPRLPRPRPRPFNHPRP, the “shrunken log2 fold change” value is -0.993.

Consider RRIRRRPPRLPRPRPRPLDNPRP, for which the “shrunken log2 fold change” value was -0.0599.

Turning to RRIRIRPPRLPRPRPRPMNIPRP, the “shrunken log2 fold change” value is -0.0512.

With RRIRHRPPRLPRPRPRPKHPPRP, the “shrunken log2 fold change” value is -0.0271.

Turning to RRIRARPPRLPRPRPRPNTIPRP, the “shrunken log2 fold change” value is -0.0317.

Consider RRIRRRPPRLPRPRPRPSAEPRP, for which the “shrunken log2 fold change” value came out at 0.716.

On to RRIRYRPPRLPRPRPRPTMYPRP, for which the “shrunken log2 fold change” value is -0.33.

As for RRIRARPPRLPRPRPRPQMGPRP, the “shrunken log2 fold change” value was -0.0713.

Regarding RRIRWRPPRLPRPRPRPNSDPRP, the “shrunken log2 fold change” value was -0.258.

As for RRIRRRPPRLPRPRPRPQQVPRP, the “shrunken log2 fold change” value is -0.0275.

On to RRIRLRPPRLPRPRPRPRMCPRP, for which the “shrunken log2 fold change” value was -0.0246.

Consider RRIRKRPPRLPRPRPRPHYRPRP, for which the “shrunken log2 fold change” value came out at 0.0224.

For the sequence RRIRYRPPRLPRPRPRPNDLPRP, the “shrunken log2 fold change” value came out at 0.018.

For RRIRVRPPRLPRPRPRPQGNPRP, the “shrunken log2 fold change” value was 0.055.

With RRIRGRPPRLPRPRPRPGWTPRP, the “shrunken log2 fold change” value was found to be 0.708.

For the sequence RRIRPRPPRLPRPRPRPIYRPRP, the “shrunken log2 fold change” value was -0.158.

On to RRIRCRPPRLPRPRPRPDEWPRP, for which the “shrunken log2 fold change” value was -0.0372.

Regarding RRIRQRPPRLPRPRPRPVMHPRP, the “shrunken log2 fold change” value was -0.679.

RRIRWRPPRLPRPRPRPQDGPRP: the “shrunken log2 fold change” value amounted to 0.0557.

In the case of RRIRIRPPRLPRPRPRPYSYPRP, the “shrunken log2 fold change” value was -0.0485.

In the case of RRIRWRPPRLPRPRPRPHECPRP, the “shrunken log2 fold change” value was -0.0602.

In the case of RRIRVRPPRLPRPRPRPDCNPRP, the “shrunken log2 fold change” value was -0.497.

RRIRSRPPRLPRPRPRPYISPRP: the “shrunken log2 fold change” value was -0.0172.

As for RRIRDRPPRLPRPRPRPNFAPRP, the “shrunken log2 fold change” value worked out at 0.605.

RRIRFRPPRLPRPRPRPFVNPRP: the “shrunken log2 fold change” value was -1.51.

In the case of RRIRIRPPRLPRPRPRPYVGPRP, the “shrunken log2 fold change” value was -0.384.

Turning to RRIRPRPPRLPRPRPRPVHVPRP, the “shrunken log2 fold change” value came to 0.18.

Turning to RRIRRRPPRLPRPRPRPVEDPRP, the “shrunken log2 fold change” value is 0.355.

Consider RRIRHRPPRLPRPRPRPRAWPRP, for which the “shrunken log2 fold change” value came to 0.0709.

RRIRIRPPRLPRPRPRPNHWPRP: the “shrunken log2 fold change” value amounted to 0.0534.

As for RRIRQRPPRLPRPRPRPKIYPRP, the “shrunken log2 fold change” value is -0.277.

For the sequence RRIRARPPRLPRPRPRPMGDPRP, the “shrunken log2 fold change” value was -0.0121.

For RRIRERPPRLPRPRPRPACNPRP, the “shrunken log2 fold change” value is -0.102.

In the case of RRIRERPPRLPRPRPRPDQSPRP, the “shrunken log2 fold change” value is -0.336.

Take RRIRGRPPRLPRPRPRPPAKPRP: the “shrunken log2 fold change” value is 1.48.

As for RRIRERPPRLPRPRPRPVYIPRP, the “shrunken log2 fold change” value was -0.0234.

Regarding RRIRPRPPRLPRPRPRPHAMPRP, the “shrunken log2 fold change” value is -0.0838.

For the sequence RRIRQRPPRLPRPRPRPTVIPRP, the “shrunken log2 fold change” value is -0.0817.

In the case of RRIRCRPPRLPRPRPRPREGPRP, the “shrunken log2 fold change” value amounted to 1.09.

For RRIRKRPPRLPRPRPRPPYKPRP, the “shrunken log2 fold change” value is -0.142.

With RRIRCRPPRLPRPRPRPGFEPRP, the “shrunken log2 fold change” value was found to be 0.244.

With RRIRRRPPRLPRPRPRPHGQPRP, the “shrunken log2 fold change” value is 0.194.

With RRIRVRPPRLPRPRPRPWELPRP, the “shrunken log2 fold change” value is -0.487.

In the case of RRIRRRPPRLPRPRPRPLQIPRP, the “shrunken log2 fold change” value stood at 0.0422.

On to RRIRERPPRLPRPRPRPFWIPRP, for which the “shrunken log2 fold change” value is -0.165.
